Results reported in the supplement of paper PMC7877785.
± gives the uncertainty stated by the source.

Assay: self-splicing fitness, log relative to wild type (ln ratio); higher = more splicing; Tetrahymena group I intron in knt gene, E. coli kanamycin selection, DiMSum; sequences stand for … in CUCUCU…GGAGGGAAAAGUUAUCAGGCAUGCACCUGGUAGCUAGUCUUUAAACCAAUAGAUUGCAUCGGUUUAAAAGGCAAGACCGUCAAAUUGCGGGAAAGGGGUCAACAGCCGUUCAGUACCAAGUCUCAGGGGAAACUUUGAGAUGGCCUUGCAAAGGGUAUGGUAAUAAGCUGACGGACAUGGUCCUAACCACGCAGCCAAGUCCUAAGUCAACAGAUCUUCUGUUGAUAUGGAUGCAGUUCACAGACUAAAUGUCGGUCGGGGAAGAUGUAUUCUUCUCAUAAGAUAUAGUCGGACCUCUCCUUAAUGGGAGCUAGCGGAUGAAGUGAUGCAACACUGGAGCCGCUGGGAACUAAUUUGUAUGCGAAAGUAUAUUGAUUAGUUUUGGAGUACUCGUGGUCG
Summary of the method: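 Pooled colonies went to amplicon sequencing on an Illumina HiSeq 2500 after six replicate transformations. The plates were LB agar with 100 μg/mL carbenicillin, 50 μM IPTG and 0.2% rhamnose, with or without 25 μg/mL kanamycin, incubated overnight at 37°C or 30°C. The E. coli BL21(DE3) library had all eight P1ex-region intron nucleotides randomised, the intron placed in the knt kanamycin-resistance gene on pET-22b(+). DiMSum fitness is the error-weighted combination of replicate fold changes, kanamycin against none, normalised to wild type.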

| Sequence | self-splicing fitness (ln) (30 °C) | self-splicing fitness (ln) (37 °C) |
| --- | --- | --- |
| AGGCAGCAAUAUUACGAGAA | -3.3 ± 0.41 | -2.09 ± 0.36 |
| AGGCAGCAAUAUUACGAUGU | -2.41 ± 0.094 | -0.487 ± 0.1 |
| AGGCAGCAAUAUUACGCAAC | -0.42 ± 0.21 | -1.41 ± 0.34 |
| AGGCAGCAAUAUUACGCACC | -0.268 ± 0.1 | -0.0601 ± 0.15 |
| AGGCAGCAAUAUUACGCACG | -0.754 ± 0.069 | -0.342 ± 0.11 |
| AGGCAGCAAUAUUACGCAGU | -3.36 ± 0.2 | -1.55 ± 0.19 |
| AGGCAGCAAUAUUACGCCAU | -2.27 ± 0.25 | -1.39 ± 0.3 |
| AGGCAGCAAUAUUACGCUAG | -3.53 ± 0.25 | -3.04 ± 0.27 |
| AGGCAGCAAUAUUACGCUCG | -1.75 ± 0.091 | -0.442 ± 0.12 |
| AGGCAGCAAUAUUACGGAUG | -2.3 ± 0.1 | -2.58 ± 0.21 |
| AGGCAGCAAUAUUACGGGCG | -0.287 ± 0.097 | -0.172 ± 0.11 |
| AGGCAGCAAUAUUACGGGCU | -0.928 ± 0.071 | -1.51 ± 0.11 |
| AGGCAGCAAUAUUACGGGUG | -3.64 ± 0.15 | -2.29 ± 0.12 |
| AGGCAGCAAUAUUACGGUUG | -3.28 ± 0.18 | -1.46 ± 0.17 |
| AGGCAGCAAUAUUACGGUUU | -0.696 ± 0.043 | -0.371 ± 0.062 |
| AGGCAGCAAUAUUACGUACG | -1.22 ± 0.074 | 0.303 ± 0.1 |
| AGGCAGCAAUAUUACGUUGG | -3.79 ± 0.2 | -1.45 ± 0.11 |
| AGGCAGCAAUAUUACGUUUA | -1.33 ± 0.072 | -0.496 ± 0.08 |
| AGGGAGCAAUAUUACGAAUG | -3.27 ± 0.3 | -2.38 ± 0.39 |
| AGGGAGCAAUAUUACGACCG | -1.92 ± 0.35 | -0.586 ± 0.33 |
| AGGGAGCAAUAUUACGACGU | -2.14 ± 0.23 | -1.63 ± 0.19 |
| AGGGAGCAAUAUUACGAUAU | – | -1.88 ± 0.47 |
| AGGGAGCAAUAUUACGAUCA | – | -1.5 ± 0.4 |
| AGGGAGCAAUAUUACGCAGA | – | -3.27 ± 0.43 |
| AGGGAGCAAUAUUACGCGAG | -3.35 ± 0.19 | -2.47 ± 0.19 |

| Sequence | self-splicing fitness (ln) (30 °C) | self-splicing fitness (ln) (37 °C) |
| --- | --- | --- |
| AGGGAGCAAUAUUACGCGUA | -3.21 ± 0.31 | -3.16 ± 0.23 |
| AGGGAGCAAUAUUACGCUUA | -3.44 ± 0.24 | -1.62 ± 0.21 |
| AGGGAGCAAUAUUACGGAAA | -2.4 ± 0.34 | -2.34 ± 0.42 |
| AGGGAGCAAUAUUACGGACU | -1.03 ± 0.16 | 0.483 ± 0.22 |
| AGGGAGCAAUAUUACGGGUG | -4.12 ± 0.2 | -2.54 ± 0.29 |
| AGGGAGCAAUAUUACGGUGU | -4.33 ± 0.22 | -2.37 ± 0.18 |
| AGGGAGCAAUAUUACGUAAC | -2.23 ± 0.28 | -2.99 ± 0.29 |
| AGGGAGCAAUAUUACGUCUA | -2.54 ± 0.21 | -2.26 ± 0.21 |
| AGGGAGCAAUAUUACGUGAC | -2.06 ± 0.3 | -1.15 ± 0.39 |
| AGGUAGCAAUAUUACGACAA | -0.614 ± 0.018 | -0.295 ± 0.035 |
| AGGUAGCAAUAUUACGAGGC | -3.696 ± 0.036 | -2.87 ± 0.047 |
| AGGUAGCAAUAUUACGAGUU | -2.033 ± 0.015 | -0.955 ± 0.033 |
| AGGUAGCAAUAUUACGAUGU | -0.919 ± 0.013 | -0.474 ± 0.033 |
| AGGUAGCAAUAUUACGAUUA | -0.677 ± 0.016 | -0.383 ± 0.033 |
| AGGUAGCAAUAUUACGCAUG | -2.022 ± 0.017 | -1.22 ± 0.034 |
| AGGUAGCAAUAUUACGCAUU | -1.862 ± 0.015 | -0.988 ± 0.034 |
| AGGUAGCAAUAUUACGCCCG | -0.077 ± 0.022 | -0.122 ± 0.04 |
| AGGUAGCAAUAUUACGCCGU | -1.24 ± 0.019 | -0.852 ± 0.035 |
| AGGUAGCAAUAUUACGCCUA | -0.599 ± 0.019 | -0.197 ± 0.035 |
| AGGUAGCAAUAUUACGCGGU | -3.312 ± 0.024 | -2.14 ± 0.037 |
| AGGUAGCAAUAUUACGGAUG | -3.698 ± 0.028 | -2.39 ± 0.037 |
| AGGUAGCAAUAUUACGUAGC | -2.916 ± 0.021 | -1.94 ± 0.036 |
| AGGUAGCAAUAUUACGUGCC | -1.99 ± 0.022 | -1.22 ± 0.037 |
| AGGUAGCAAUAUUACGUGCU | -0.841 ± 0.014 | -0.391 ± 0.033 |
